Entries after “also recorded” stand apart in the source; their conditions may differ.
B1: R24K KD1: Mutated first Kunitz-type domain of TFPI-2 (R24K), recombinant (protein)
chain: DAAQEPTGNNAEICLLPLDYGPCKALLLRYYYDRYTQSCRQFLYGGCEGNANNFYTWEACDDACWRIEKVPKV
modifications: left off: small tags and cut ends
notes: Mutated first Kunitz-type domain of TFPI-2 (R24K), recombinant
B2: Alexa Fluor 488-conjugated TFPI-2: Recombinant TFPI-2 protein labeled with Alexa Fluor 488 dye (conjugate, UniProt P48307 23-235, looked up)
Tissue factor pathway …: DAAQEPTGNNAEICLLPLDYGPCRALLLRYYYDRYTQSCRQFLYGGCEGNANNFYTWEACDDACWRIEKVPKVCRLQVSVDDQCEGSTEKYFFNLSSMTCEKFFSGGCHRNRIENRFPDEATCMGFCAPKKIPSFCYSPKDEGLCSANVTRYYFNPRYRTCDAFTYTGCGGNDNNFVSREDCKRACAKALKKKKKMPKLRFASRIRKIRKKQF
modifications: Alexa Fluor 488 label
notes: Recombinant TFPI-2 protein labeled with Alexa Fluor 488 dye
B3: R24K KD1-CT: Chimera of first Kunitz-type domain (amino acids 1-73, R24K) and carboxy-terminal tail (amino acids 187-213) of TFPI-2, SEQ ID NO:2 (protein)
chain: DAAQEPTGNNAEICLLPLDYGPCRALLLRYYYDRYTQSCRQFLYGGCEGNANNFYTWEACDDACWRIEKVPKVEFAKALKKKKKMPKLRFASRIRKIRKKQF
modifications: chimera of the first Kunitz-type domain (with the R24K mutation) and the carboxy-terminal tail

How the values were obtained:
HT-1080 cells [1] = assay: Internalization of offered recombinant proteins in HT-1080 cells, immunoblotting of cytosolic and nuclear fractions; format: cell-based, human; conditions: 1 μM; for Internalization to cytosol and nucleus of HT-1080 cells: 37° C., five minutes, immunoblot (FIG. 4B)
Experimental: HT-1080 cells were grown in six-well plates under standard conditions. At confluence, the cells were treated with fresh medium containing either wild-type TFPI-2, TFPI-2^1-188, R24Q KD1, R24K KD1, or R24K KD1-CT as previously described (Kempaiah and Kisiel, Apoptosis, 2008;13:702-715). Briefly, duplicate wells were treated with purified proteins (1 μM final concentration) and incubated at either 37° C. or 4° C. for different time periods. Two wells were also treated with phosphate-buffered saline (PBS) at each temperature to serve as a control. At selected time points, the media was removed and the cells were rinsed once with PBS. The cells were then washed with 1 M NaCl/PBS for 30 minutes with gentle shaking to dissociate cell surface-bound proteins (Iino et al., Arterioscler. Thromb. Vasc. Biol., 1998;18:40-46). Finally, the cells were rinsed once with PBS, trypsinized and harvested for the preparation of cell lysates and cell fractions.
To prepare total cell lysates, 1-3×10^6 cells were lysed by sonication in 500 μl of lysis buffer containing of 125 mM Tris-HCl (pH 6.8), 2% SDS, 10% glycerol, 50 mM sodium phosphate, 1 mM phenylmethanesulphonylfluoride (PMSF) and protease inhibitor cocktail. The lysate was kept on ice for about 10 minutes, centrifuged for 15 minutes at 10,000×g at 4° C., and the supernatant recovered. To prepare nuclear and cytosolic fractions, approximately 2×10^6 cells were harvested and washed twice with cold PBS by centrifugation at 600×g in a Beckman J-6M/E centrifuge for seven minutes at 4° C. Five volumes of ice cold cytosolic buffer (10 mM Hepes pH 7.4, 0.33 M sucrose, 1 mM MgCl2, 0.1% Triton X-100 and protease inhibitor cocktail) was added to the cells and incubated on ice for 15 minutes. The cytosolic fraction was collected by centrifugation at 900×g for five minutes at 4° C. The resulting undissolved pellet was washed twice with cytosolic buffer followed by centrifugation at 900×g for five minutes at 4° C. Finally, the resulting pellet was resuspended in five volumes of ice cold buffer containing 0.45 M NaCl in 10 mM Hepes (pH 7.4) and protease inhibitor cocktail. The suspension was incubated on ice for an additional 15 minutes to dissolve the nucleus, and subsequently centrifuged at 18,000×g for five minutes at 4° C. The resulting supernatant was collected as the nuclear extract. All samples were boiled for three minutes in the presence of 5% SDS and stored at −20° C. until use.
The cell lysate, cytosol and nuclear fractions were subjected to SDS-PAGE using 4-20% polyacrylamide gradient gels. […] The membranes were then probed with specific antibodies dissolved in fresh blocking buffer. Immunoreactive proteins were identified using HRP-conjugated secondary antibodies and a chemiluminescent reagent system essentially as described (Kempaiah et al., Mol. Cancer, 2007;6:20). The integrity of the cytosolic and nuclear fractions was verified using anti-α-tubulin and anti-histone-H1 antibodies, respectively (Guo et al., Am. J Physiol. Cell Physiol., 2007;292:2095-2102).
The relative intensity of the Western blot bands were quantified using QUANTISCAN software (Biosoft, Cambridge, U.K.). The intensities are reported in arbitrary units (A.U.) obtained by subtracting the background value from the corresponding band's mean value.

human tumor cell lines = conditions: cited from earlier work
HT-1080 cells [2] = assay: Confocal microscopy of Alexa Fluor 488-conjugated TFPI-2 internalization in HT-1080 cells; format: cell-based, human; conditions: 50 μg/ml
Experimental: The internalization of recombinant TFPI-2 in HT-1080 cells was assessed by confocal microscopy using a Zeiss LSM510-META microscope and Alexa Fluor 488-conjugated TFPI-2. Approximately 0.5 mg of recombinant TFPI-2 protein was labeled with Alexa Fluor 488 dye following the manufacturer's instructions. Alexa Fluor-conjugated protein (50 μg/ml) was added to two sets of HT-1080 cells that were grown to confluence in two-chamber culture slides and incubated either at 37° C. or 4° C. for different time periods. Cells were then washed twice with cold PBS and fixed with 4% paraformaldehyde solution for 15 minutes. The slides were further rinsed twice with cold PBS, treated with a drop of mounting medium containing 4′,6-diamidino-2-phenylindole (DAPI), and covered with a coverslip for confocal microscopy.

Molecule	Internalization to cytosol and nucleus of HT-1080 cells (HT-1080 cells [1])	Internalization by HT-1080 cells after 48-hour incubation (HT-1080 cells [1]; 48-hour incubation at 37° C.)	Apoptosis induction potency relative to TFPI-2 (human tumor cell lines)	Induction of caspase-mediated apoptosis (human tumor cell lines; several tumor cell lines, exogenously offered, Kempaiah and Kisiel 2008)	Intracellular localization by confocal microscopy (HT-1080 cells [2]; 4° C., five minutes and 10 minutes (FIG. 1D))	Intracellular localization by confocal microscopy (HT-1080 cells [2]; 4° C., two hour time point (FIG. 1D))	Intracellular localization by confocal microscopy (HT-1080 cells [2]; two-hour incubation at 37° C. (FIG. 1B))	Internalization to cytosol and nucleus of HT-1080 cells (HT-1080 cells [1]; listed as R24KD 1-CT)
B1	is not internalized to either the cytosol or nucleus; also recorded: failed to enter the cells	failed to be internalized	more potent inducer of apoptosis than TFPI-2	induce caspase-mediated apoptosis				
B2					limited punctate distribution of TFPI-2 in the cytosol	significant cytosolic and nuclear-associated TFPI-2	cytosolic and nuclear localization of TFPI-2; also recorded: uniform distribution of TFPI-2	
B3	is internalized to both the cytosol and nuclear fractions; also recorded: rapidly internalized and translocated to the nucleus							internalized and translocated to the nucleus within minutes
